{"source": "patent US12576024B2", "about": "“Compositions comprising Propionibacterium acnes bacteriophages for treating acne” (priority 2017, dated 2026)", "tested_on": "P. acnes biofilms", "experiment": "Screen of enzymes that degrade P. acnes biofilms (crystal violet)", "type": "cell-based", "conditions": "enzymes 0.01 mg/mL, 30° C., 30 mins", "method": "FIG. 4. A screen to select enzymes that can degrade P. acnes biofilms. P. acnes was grown in polystyrene microtiter plates to stimulate biofilm production. Enzymes were added at 0.01 mg/mL to the wells and incubated at 30° C. for 30 mins. The degraded biofilm was washed away with phosphate buffered saline (PBS), and the residual biofilm in each well was quantified by staining with crystal violet and recording absorbance at 590 nm.\nWithout being bound by any scientific theory, we hypothesized that biofilms might present a significant barrier to phage killing of sessile P. acnes cells. […] In order to determine whether biofilm degradation would improve phage killing, a number of enzymes was screened to find a BDE specific for P. acnes. The screen comprised three classes of enzymes that might degrade types of materials that may be found in biofilms: DNA, polysaccharides, and proteins.", "note": "“Also recorded” adds a separate entry of the source."}
{"molecule": "proteinase K: protease screened as P. acnes biofilm degrading enzyme (protein, UniProt P06873 106-384, looked up) Proteinase K: AAQTNAPWGLARISSTSPGTSTYYYDESAGQGSCVYVIDTGIEASHPEFEGRAQMVKTYYYSSRDGNGHGTHCAGTVGSRTYGVAKKTQLFGVKVLDDNGSGQYSTIIAGMDFVASDKNNRNCPKGVVASLSLGGGYSSSVNSAAARLQSSGVMVAVAAGNNNADARNYSPASEPSVCTVGASDRYDRRSSFSNYGSVLDIFGPGTSILSTWIGGSTRSISGTSMATPHVAGLAAYLMTLGKTTAASACRYIADTANKGDLSNIPFGTVNLLAYNNYQA", "values": [{"measurement": "P. acnes biofilm degradation (residual biofilm, absorbance at 590 nm)", "value": "good activity"}]}
{"molecule": "dispersin: a glycoside hydrolase from Aggregatibacter actinomycetemcomitans, biofilm degrading enzyme (protein, Aggregatibacter actinomycetemcomitans, a glycoside hydrolase from Aggregatibacter actinomycetemcomitans, biofilm degrading enzyme) MNCCVKGNSIYPQKTSTKQTGLMLDIARHFYSPEVIKSFIDTISLSGGNFLHLHFSDHENYAIESHLLNQRAENAVQGKDGIYINPYTGKPFLSYRQLDDIKAYAKAKGIELIPELDSPNHMTAIFKLVQKDRGVKYLQGLKSRQVDDEIDITNADSITFMQSLMSEVIDIFGDTSQHFHIGGDEFGYSVESNHEFITYANKLSYFLEKKGLKTRMWNDGLIKNTFEQINPNIEITYWSYDGDTQDKNEAAERRDMRVSLPELLAKGFTVLNYNSYYLYIVPKASPTFSQDAAFAAKDVIKNWDLGVWDGRNTKNRVQNTHEIAGAALSIWGEDAKALKDETIQKNTKSLLEAVIHKTNGDE", "values": [{"measurement": "P. acnes biofilm degradation (residual biofilm, absorbance at 590 nm)", "value": "best glycoside depolymerase amongst those tested; also recorded: best rates of biofilm degradation"}]}
